Holding throughout (assay): SPR Biacore, captured binder
One test deals with T1, human IL-17A (human, UniProt Q16552 24-155).
T1 construct: Purified recombinant; biotinylated in the ELISA; also called HuIL-17A; Hu IL-17A

A further test has as its target T2, human IL-17A/F (human, UniProt Q16552 24-155; Q96PD4 31-163).
T2 construct: Heterodimer of IL-17A and IL-17F, purified recombinant; also called HuIL-17A/F; Hu IL-17A/F

The target of a further test is cyno IL-17A (cynomolgus monkey, UniProt A0A2K5TTB0 24-155).
Chain of cyno IL-17A (A0A2K5TTB0 entry or part of it): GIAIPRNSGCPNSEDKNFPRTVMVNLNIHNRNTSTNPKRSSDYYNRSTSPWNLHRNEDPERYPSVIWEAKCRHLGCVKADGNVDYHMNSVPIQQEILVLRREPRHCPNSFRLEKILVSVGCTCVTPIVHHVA

A value given as a limit tells only on which side of the number the result lay.

T1 sequence (Q16552 24-155 limits assumed): as the sequence (A0A2K5TTB0 entry or part of it) above, with A3T, S8P, S34N, V77I, K78N, R104P counted along it
T2 sequence (Q16552 24-155 limits assumed, chain 1 of 2): as the sequence (A0A2K5TTB0 entry or part of it) above, with A3T, S8P, S34N, V77I, K78N, R104P counted along it
T2 sequence (Q96PD4 31-163 limits assumed, chain 2 of 2): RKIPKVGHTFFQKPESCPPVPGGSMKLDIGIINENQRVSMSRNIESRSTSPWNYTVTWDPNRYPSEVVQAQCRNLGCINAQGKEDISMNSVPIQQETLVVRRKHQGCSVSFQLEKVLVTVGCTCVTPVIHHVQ
Method for cyno IL-17A: (§1) The binding of antibodies to purified recombinant human, cyno, rat, mouse, rabbit IL-17 and human IL-17A/F were determined by surface plasmon resonance-based measurements with a Biacore® 3000 instrument (Biacore® AB, Uppsala, Sweden) using running HBS-EP (10 mM HEPES [pH 7.4], 150 mM NaCl, 3 mM EDTA, and 0.005% surfactant P20) at 25° C. […] Approximately 5000 RU of goat anti-mouse or anti-human IgG (Fcγ) fragment specific polyclonal antibody (Pierce Biotechnology Inc, Rockford, Ill.) diluted in 10 mM sodium acetate (pH 4.5) was directly immobilized across a CM5 research grade biosensor chip using a standard amine coupling kit according to manufacturer's instructions and procedures at 25 μg/ml. Unreacted moieties on the biosensor surface were blocked with ethanolamine. Modified carboxymethyl dextran surface in flowcell 2 and 4 was used as a reaction surface. Unmodified carboxymethyl dextran without goat anti-mouse or anti-human IgG in flow cell 1 and 3 was used as the reference surface. For kinetic analysis, rate equations derived from the 1:1 Langmuir binding model were fitted simultaneously to association and dissociation phases of all eight injections (using global fit analysis) with the use of Biaevaluation 4.0.1 software. Purified antibodies were diluted in HEPES-buffered saline for capture across goat anti-mouse or anti-human IgG specific reaction surfaces. Antibodies to be captured as a ligand (25 μg/ml) were injected over reaction matrices at a flow rate of 5 μl/min. The association and dissociation rate constants, kon (unit M-1s-1) and koff (unit s-1) were determined under a continuous flow rate of 25 μl/min. Rate constants were derived by making kinetic binding measurements at ten different antigen concentrations ranging from 10 nM to 200 nM. The equilibrium dissociation constant (unit M) of the reaction between antibodies and recombinant purified IL-17 antigens was then calculated from the kinetic rate constants by the following formula: KD=koff/kon. Binding was recorded as a function of time and kinetic rate constants are calculated. In this assay, on-rates as fast as 10⁶ M⁻¹ s⁻¹ and off-rates as slow as 10⁻⁶ s⁻¹ can be measured.
Method for human IL-17A/F: as §1

B1: IL17-B6-15 (antibody, V domains shown)
VH: EVQLVQSGAEVKKPGESLKISCKASGGSFSGYGTSWVRQAPGQGLEWMGGITHFFGAVDYAQKFQGRVTITADESTTTAYMELSGLTSDDTAVYYCARDPNEFWNGYYATHDFDYWGQGTTVTVSS
VL: EIVLTQSPDFQSVTPKEKVTITCRASQNIGAELHWYQQKPDQSPKLLIKYASHSISGVPSRFSGSGSGTDFTLTINGLEAEDAGTYYCHQTDRLPYSFGPGTKVDIK
B1: in the test with human IL-17A, the Kd stood at 7.3 pM, the koff is 6.02e-05 s⁻¹ and the kon came out at 8.25e+06 M⁻¹ s⁻¹. Moreover, in the test with human IL-17A/F, the Kd amounted to 6.47 pM, the dissociation rate constant (koff) turned out to be 5.71e-05 s⁻¹ and the kon is 8.82e+06 M⁻¹ s⁻¹. Further, in the test with cyno IL-17A, binding was characterised by a dissociation constant (Kd) of 4.01 pM, the koff is 5.5e-05 s⁻¹ and the on-rate (kon) was found to be 1.37e+07 M⁻¹ s⁻¹.

B2: IL17-B6-16 (antibody, V domains shown)
VH: EVQLVQSGAEVKMPGSSLKISCKASGGSFRGYGISWVRQAPGQGLEWMGGITPFFGWADYAQKFQGRVTITADESTTTAYMELSGLTSDDTAVYYCARDPNEFWNGYYDTHHFDYWGQGTTVTVSS
VL: EIVLTQSPDFQSVTPKEKVTITCRASQDIGSALHWYQQKPDQSPKLLIKYASHSVSGVPSRFSGSGSGTDFTLTINGLEAEDAGTYYCHQSDILPHTFGPGTKVDIK
Take B2: in the test with human IL-17A, the Kd was found to be 7.94 pM, the dissociation rate constant (koff) was determined as 3e-05 s⁻¹ and the on-rate (kon) was 3.78e+06 M⁻¹ s⁻¹. Moreover, in the test with human IL-17A/F, the affinity, expressed as Kd, was 16.4 pM; the koff was 6.57e-05 s⁻¹; the kon came out at 4e+06 M⁻¹ s⁻¹. In the test with cyno IL-17A, this molecule registered a Kd of 4.83 pM, a koff of 4.48e-05 s⁻¹ and a kon of 9.27e+06 M⁻¹ s⁻¹.

B3: IL17-G9-1 (antibody, V domains shown)
VH: EVQLLESGGGVVQPGRSLRLSCAASGFIFSNYGMHWVRQAPGKGLEWVAVISYDGSNKYYADSVKGRFTISRDNSKNTLYLEMNSLRPEDTAVYYCAKVGASGDYYYSYGLDVWGQGTTVTVSS
VL: QSVLTQPPSASGTPGQTVSISCSGSHSNIGRHPVDWYQQVPGAAPKLLMYYGGYRPSGVPDRFSGSQSGTSASLAISGLQSEDEADYYCATWDDRLVGYVFGSGTKVTVLG
As for B3, the Kd came to 25.7 pM in the test with human IL-17A, 3.13 pM in the test with human IL-17A/F and 2.96 pM with cyno IL-17A. Also, the figures for the koff in the test with human IL-17A, in the test with human IL-17A/F and with cyno IL-17A were 1.05e-05 s⁻¹, 1e-06 s⁻¹ and 1e-06 s⁻¹, respectively. The results for the kon with human IL-17A, with human IL-17A/F and with cyno IL-17A were 408000 M⁻¹ s⁻¹, 320000 M⁻¹ s⁻¹ and 338000 M⁻¹ s⁻¹, respectively.

B4: IL17-G9-M1 (antibody, V domains shown)
VH: EVQLLESGGGVVQPGRSLRLSCAASGFIFSNYGMHWVRQAPGKGLEWVAVISYDGGYKYYADSVKGRFTISRDNSKNTLYLEMNSLRPEDTAVYYCAKLSLSGDYYYSYGFDGWGQGTTVTVSS
VL: QSVLTQPPSASGTPGQTVSISCSGSKSNIGSHYVHWYQQVPGAAPKLLMYDFGQRPSGVPDRFSGSQSGTSASLAISGLQSEDEADYYCGTWDDWLGGYVFGTGTKVTVLG
B4: the equilibrium dissociation constant (Kd) amounted to 3.22 pM with human IL-17A, 244 pM with human IL-17A/F and 2.65 pM with cyno IL-17A. Further, the koff is 1e-06 s⁻¹ in the test with human IL-17A, 3.95e-05 s⁻¹ in the test with human IL-17A/F and 1e-06 s⁻¹ with cyno IL-17A. In addition, the results for the kon with human IL-17A, with human IL-17A/F and with cyno IL-17A were 311000 M⁻¹ s⁻¹, 162000 M⁻¹ s⁻¹ and 377000 M⁻¹ s⁻¹, respectively.

B5: IL17-G9-4 (antibody, V domains shown)
VH: EVQLLESGGGVVQPGRSLRLSCAASGFIFSNYGMHWVRQAPGKGLEWVAVISYDGSNKYYADSVKGRFTISRDNSKNTLYLEMNSLRPEDTAVYYCAKVGASGDYYYSYGLDVWGQGTTVTVSS
VL: QSVLTQPPSASGTPGQTVSISCSGRQSNIGRHYVDWYQQVPGAAPKLLMYYDSIRPSGVPDRFSGSQSGTSASLAISGLQSEDEADYYCATWDDSLGGYVFGSGTKVTVLG
notes: converted into IgG
Regarding B5, in the test with human IL-17A, binding was characterised by a dissociation constant (Kd) of 4.69 pM, the koff was found to be 1e-06 s⁻¹ and the kon amounted to 213000 M⁻¹ s⁻¹. In the test with human IL-17A/F, this molecule gave a Kd of 4.24 pM, a koff of 1e-06 s⁻¹ and a kon of 236000 M⁻¹ s⁻¹. In the test with cyno IL-17A, the affinity, expressed as Kd, was 3.77 pM; the koff was found to be 1e-06 s⁻¹; the kon was found to be 265000 M⁻¹ s⁻¹.

B6: IL17-G9-M2 (antibody, V domains shown)
VH: EVQLLESGGGVVQPGRSLRLSCAASGFIFSNYGMHWVRQAPGKGLEWVAVISYDGSNKYYADSVKGRFTISRDNSKNTLYLEMNSLRPEDTAVYYCAKVGASGDYYYSYGLDVWGQGTTVTVSS
VL: QSVLTQPPSASGTPGQTVSISCSGHNSNIGYHYVHWYQQVPGAAPKLLIYGDGWRPSGVPDRFSGSQSGTSASLAISGLQSEDEADYYCGTWDDWLGGYVFGTGTKVTVLG
notes: converted into IgG
For the molecule B6, the Kd in the test with human IL-17A was 8.26 pM; in the test with human IL-17A/F, 10.3 pM; with cyno IL-17A, less than 2.45 pM. For the same molecule, the koff is 2.32e-06 s⁻¹ with human IL-17A, 1.41e-06 s⁻¹ in the test with human IL-17A/F and less than 1e-06 s⁻¹ in the test with cyno IL-17A. The kon stood at 281000 M⁻¹ s⁻¹ with human IL-17A, 137000 M⁻¹ s⁻¹ with human IL-17A/F and 408000 M⁻¹ s⁻¹ with cyno IL-17A.

B7: IL17-G9-2 (antibody, V domains shown)
VH: EVQLLESGGGVVQPGRSLRLSCAASGFIFRNYGMHWVRQAPGKGLEWVAVISYDGSNKYYADSVKGRFTISRDNSKNTLYLEMNSLRPEDTAVYYCAKVGASGDYYYSYGLDVWGQGTTVTVSS
VL: QSVLTQPPSASGTPGQTVSISCSGSNSNIGRHPVDWYQQVPGAAPKLLIYYDDQRPSGVPDRFSGSQSGTSASLAISGLQSEDEADYYCATWDDSLGGYVFGSGTKVTVLG
B7: the Kd with human IL-17A is less than 4.33 pM; with human IL-17A/F, 437 pM; with cyno IL-17A, less than 2.7 pM. For the same molecule, the dissociation rate constant (koff) with human IL-17A was less than 1e-06 s⁻¹; with human IL-17A/F, 8.66e-05 s⁻¹; with cyno IL-17A it was less than 1e-06 s⁻¹. The kon in the test with human IL-17A worked out at 231000 M⁻¹ s⁻¹; in the test with human IL-17A/F, 198000 M⁻¹ s⁻¹; with cyno IL-17A it was 371000 M⁻¹ s⁻¹.

B8: IL17-TN-K7-B6 (antibody, V domains shown)
VH: EVQLVQSGAEVKKPGESLKISCKASGGSFRSYGISWVRQAPGQGLEWMGGITPILGTANYAQKFQGRVTITADESTTTAYMELSGLTSDDTAVYYCAREPNDFWNGYYTTHHFDYWGQGTPVTVSS
VL: DVVMTQSPDFQSVTPKEKVTITCRASQNIGSALHWYQQKPDQSPKLLIKYASQSISGVPSRFSGSGSGTDFTLTINGLEAEDAGTYYCHQSTSLPHTFGQGTKLDIKR
notes: Fully human antibody
As to B8, the Kd in the test with human IL-17A was 840 pM; with human IL-17A/F, 21900 pM; with cyno IL-17A it was 992 pM. For the same molecule, the values for the koff with human IL-17A, with human IL-17A/F and in the test with cyno IL-17A were 1.47e-05 s⁻¹, 0.000175 s⁻¹ and 2.51e-05 s⁻¹, respectively. The on-rate constant (kon) turned out to be 17500 M⁻¹ s⁻¹ with human IL-17A, 7980 M⁻¹ s⁻¹ with human IL-17A/F and 25300 M⁻¹ s⁻¹ with cyno IL-17A.

Source of the values: US20140348834A1 (published 2014).
